Assay results published in US6645728 (University of California, dated 2003).

T1: IKKα-T7 (murine, UniProt Q60680 1-745)
T1 construct: also called T7-IKKα; murine IKKα/CHUK
T1 sequence (looked up): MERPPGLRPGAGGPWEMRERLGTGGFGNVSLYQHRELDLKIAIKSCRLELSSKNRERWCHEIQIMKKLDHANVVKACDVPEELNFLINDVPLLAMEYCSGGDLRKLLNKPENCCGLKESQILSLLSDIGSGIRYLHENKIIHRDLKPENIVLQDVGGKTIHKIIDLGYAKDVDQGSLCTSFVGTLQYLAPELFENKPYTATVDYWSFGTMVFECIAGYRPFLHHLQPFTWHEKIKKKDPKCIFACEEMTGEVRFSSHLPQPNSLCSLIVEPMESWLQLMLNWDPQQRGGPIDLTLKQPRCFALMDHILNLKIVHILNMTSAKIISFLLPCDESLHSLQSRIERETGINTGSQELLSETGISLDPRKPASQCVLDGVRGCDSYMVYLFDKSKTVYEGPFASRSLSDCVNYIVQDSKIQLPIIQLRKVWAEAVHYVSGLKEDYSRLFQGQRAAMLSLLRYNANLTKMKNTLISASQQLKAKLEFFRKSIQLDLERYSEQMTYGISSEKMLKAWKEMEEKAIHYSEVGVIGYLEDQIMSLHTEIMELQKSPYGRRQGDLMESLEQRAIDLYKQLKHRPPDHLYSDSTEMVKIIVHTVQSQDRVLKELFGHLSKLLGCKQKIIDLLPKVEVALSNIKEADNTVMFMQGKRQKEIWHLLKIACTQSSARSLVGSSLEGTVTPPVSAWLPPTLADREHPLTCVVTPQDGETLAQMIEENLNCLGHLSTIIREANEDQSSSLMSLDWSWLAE

B1: Myc-N1-220 (other, not shown: small tags and cut ends)
chain: MAVMEMACPGAPGSAVGQQKELPKPKEKTPPLGKKQSSVYKLEAVEKSPVFCGKWEILNDVITKGTAKEGSEAGPAAISIIAQAECENSQEFSPTFSERIFIAGSKQYSQSESLDQIPNNVAHATEGKMARVCWKGKRRSKARKKRKKKSSKSLAHAGVALAKPLPRTPEQESCTIPVQEDESPLGAPYVRNTPQFTKPLKEPGLGQLCFKQLGEGLRPA
notes: Treated as one construct; also called Myc-N1-200; N1-200
B2: Myc-N570-947 (other, not shown: small tags and cut ends)
chain: GRSCDAKVDVWSSCCMMLHMLNGCHPWTQFFRGPLCLKIASEPPPVREIPPSCAPLTAQAIQEGLRKEPIHRVSAAELGGKVNRALQQVGGLKSPWRGEYKEPRHPPPNQANYHQTLHAQPRELSPRAPGPRPAEETTGRAPKLQPPLPPEPPEPNKSPPLTLSKEESGMWEPLPLSSLEPAPARNPSSPERKATVPEQELQQLEIELFLNSLSQPFSLEEQEQILSCLSIDSLSLSDDSEKNPSKASQSSRDTLSSGVHSWSSQAEARSSSWNMVLARGRPTDTPSYFNGVKVQIQSLNGEHLHIREFHRVKVGDIATGISSQIPAAAFSLVTKDGQPVRYDMEVPDSGIDLQCTLAPDGSFAWSWRVKHGQLENRP
B3: Myc-N1-366 (other, not shown: small tags and cut ends)
chain: MAVMEMACPGAPGSAVGQQKELPKPKEKTPPLGKKQSSVYKLEAVEKSPVFCGKWEILNDVITKGTAKEGSEAGPAAISIIAQAECENSQEFSPTFSERIFIAGSKQYSQSESLDQIPNNVAHATEGKMARVCWKGKRRSKARKKRKKKSSKSLAHAGVALAKPLPRTPEQESCTIPVQEDESPLGAPYVRNTPQFTKPLKEPGLGQLCFKQLGEGLRPALPRSELHKLISPLQCLNHVWKLHHPQDGGPLPLPTHPFPYSRLPHPFPFHPLQPWKPHPLESFLGKLACVDSQKPLPDPHLSKLACVDSPKPLPGPHLEPSCLSRGAHEKFSVEEYLVHALQGSVSSSQAHSLTSLAKTWAARGSR
notes: C-terminal deletion mutant of NIK
B4: Myc-N1-578 (other, not shown: small tags and cut ends)
chain: MAVMEMACPGAPGSAVGQQKELPKPKEKTPPLGKKQSSVYKLEAVEKSPVFCGKWEILNDVITKGTAKEGSEAGPAAISIIAQAECENSQEFSPTFSERIFIAGSKQYSQSESLDQIPNNVAHATEGKMARVCWKGKRRSKARKKRKKKSSKSLAHAGVALAKPLPRTPEQESCTIPVQEDESPLGAPYVRNTPQFTKPLKEPGLGQLCFKQLGEGLRPALPRSELHKLISPLQCLNHVWKLHHPQDGGPLPLPTHPFPYSRLPHPFPFHPLQPWKPHPLESFLGKLACVDSQKPLPDPHLSKLACVDSPKPLPGPHLEPSCLSRGAHEKFSVEEYLVHALQGSVSSSQAHSLTSLAKTWAARGSRSREPSPKTEDNEGVLLTEKLKPVDYEYREEVHWATHQLRLGRGSFGEVHRMEDKQTGFQCAVKKVRLEVFRAEELMACAGLTSPRIVPLYGAVREGPWVNIFMELLEGGSLGQLVKEQGCLPEDRALYYLGQALEGLEYLHSRRILHGDVKADNVLLSSDGSHAALCDFGHAVCLQPDGLGKSLLTGDYIPGTETHMAPEVVLGRSCDAKVD
notes: as for B3
B5: Myc-N1-624 (other, not shown: small tags and cut ends)
chain: MAVMEMACPGAPGSAVGQQKELPKPKEKTPPLGKKQSSVYKLEAVEKSPVFCGKWEILNDVITKGTAKEGSEAGPAAISIIAQAECENSQEFSPTFSERIFIAGSKQYSQSESLDQIPNNVAHATEGKMARVCWKGKRRSKARKKRKKKSSKSLAHAGVALAKPLPRTPEQESCTIPVQEDESPLGAPYVRNTPQFTKPLKEPGLGQLCFKQLGEGLRPALPRSELHKLISPLQCLNHVWKLHHPQDGGPLPLPTHPFPYSRLPHPFPFHPLQPWKPHPLESFLGKLACVDSQKPLPDPHLSKLACVDSPKPLPGPHLEPSCLSRGAHEKFSVEEYLVHALQGSVSSSQAHSLTSLAKTWAARGSRSREPSPKTEDNEGVLLTEKLKPVDYEYREEVHWATHQLRLGRGSFGEVHRMEDKQTGFQCAVKKVRLEVFRAEELMACAGLTSPRIVPLYGAVREGPWVNIFMELLEGGSLGQLVKEQGCLPEDRALYYLGQALEGLEYLHSRRILHGDVKADNVLLSSDGSHAALCDFGHAVCLQPDGLGKSLLTGDYIPGTETHMAPEVVLGRSCDAKVDVWSSCCMMLHMLNGCHPWTQFFRGPLCLKIASEPPPVREIPPSCAP
notes: as for B3

Target: T2, NIK-T7 (Homo sapiens (Human), UniProt Q99558 1-947)
T2 construct: Full-length NIK in pEV3S with C-terminal T7 tag; also called pEV-NIK-T7
Assay: co-immunoprecipitation from 293 lysates, anti-T7 IP, anti-Myc blot

Binder	binding result
B1	no binding
B2	no binding

Target: T1, IKKα-T7
Assay: as above

Binder	binding result
B1	no binding
B3	no binding
B4	no binding
B5	no binding
